In US20110237779A1 (Genentech, published 2011):

molecular target: T1, human tissue factor (human, UniProt P13726 33-251, limits assumed); experiment: phage ELISA, solution competition: Fab-phage incubated with serially diluted TF, unbound phage captured on TF-coated wells; IC50 used as affinity estimate
T1 construct: construct not described; also called TF

Row | Binder | IC50
1 | D3 library clone, CDR-L1 KGQRVLNSWLS (Fab, V domains shown, Changes against the D3 direct graft (Kabat): VL A25G, S26Q, D28V, I29L, K30N, Y32W; copies: 1 + 1) VH: EVQLVESGGGLVQPGGSLRLSCAASGFNIKDYYMHWVRQAPGKGLEWVGWIDPENGNTIYDPKFQDRFTISADTSKNTAYLQMNSLRAEDTAVYYCARDTAAYFDYWGQGTLVTVSS VL: DIQMTQSPSSLSASVGDRVTITCKGQRVLNSWLSWYQQKPGKAPKLLIYYATSLADGVPSRFSGSGSGTDFTLTISSLQPEDFATYYCLQHGESPFTFGQGTKVEIK | 21 nM
2 | D3 library clone, CDR-L2 YAPRRAR (Fab, V domains shown, Changes against the D3 direct graft (Kabat): VL T52P, S53R, L54R, D56R; Siblings 2; copies: 1 + 1) VH: EVQLVESGGGLVQPGGSLRLSCAASGFNIKDYYMHWVRQAPGKGLEWVGWIDPENGNTIYDPKFQDRFTISADTSKNTAYLQMNSLRAEDTAVYYCARDTAAYFDYWGQGTLVTVSS VL: DIQMTQSPSSLSASVGDRVTITCKASRDIKSYLSWYQQKPGKAPKLLIYYAPRRARGVPSRFSGSGSGTDFTLTISSLQPEDFATYYCLQHGESPFTFGQGTKVEIK | 11 nM
3 | D3 library clone, CDR-L2 DAIGLAD (Fab, V domains shown, Changes against the D3 direct graft (Kabat): VL Y50D, T52I, S53G; copies: 1 + 1) VH: EVQLVESGGGLVQPGGSLRLSCAASGFNIKDYYMHWVRQAPGKGLEWVGWIDPENGNTIYDPKFQDRFTISADTSKNTAYLQMNSLRAEDTAVYYCARDTAAYFDYWGQGTLVTVSS VL: DIQMTQSPSSLSASVGDRVTITCKASRDIKSYLSWYQQKPGKAPKLLIYDAIGLADGVPSRFSGSGSGTDFTLTISSLQPEDFATYYCLQHGESPFTFGQGTKVEIK | 17 nM
4 | D3 library clone, CDR-L1 NASLVINRWLS (Fab, V domains shown, Changes against the D3 direct graft (Kabat): VL K24N, R27L, D28V, K30N, S31R, Y32W; copies: 1 + 1) VH: EVQLVESGGGLVQPGGSLRLSCAASGFNIKDYYMHWVRQAPGKGLEWVGWIDPENGNTIYDPKFQDRFTISADTSKNTAYLQMNSLRAEDTAVYYCARDTAAYFDYWGQGTLVTVSS VL: DIQMTQSPSSLSASVGDRVTITCNASLVINRWLSWYQQKPGKAPKLLIYYATSLADGVPSRFSGSGSGTDFTLTISSLQPEDFATYYCLQHGESPFTFGQGTKVEIK | 16 nM
5 | D3 library clone, CDR-L1 KGSGYIKHFVS (Fab, V domains shown, Changes against the D3 direct graft (Kabat): VL A25G, R27G, D28Y, S31H, Y32F, L33V; Siblings 2; copies: 1 + 1) VH: EVQLVESGGGLVQPGGSLRLSCAASGFNIKDYYMHWVRQAPGKGLEWVGWIDPENGNTIYDPKFQDRFTISADTSKNTAYLQMNSLRAEDTAVYYCARDTAAYFDYWGQGTLVTVSS VL: DIQMTQSPSSLSASVGDRVTITCKGSGYIKHFVSWYQQKPGKAPKLLIYYATSLADGVPSRFSGSGSGTDFTLTISSLQPEDFATYYCLQHGESPFTFGQGTKVEIK | 9 nM
6 | D3 library clone, CDR-L2 RGTSLFE, VL K24E, D28V, Y32F (Fab, V domains shown, Changes against the D3 direct graft (Kabat): VL K24E, D28V, Y32F, Y50R, A51G, A55F, D56E; copies: 1 + 1) VH: EVQLVESGGGLVQPGGSLRLSCAASGFNIKDYYMHWVRQAPGKGLEWVGWIDPENGNTIYDPKFQDRFTISADTSKNTAYLQMNSLRAEDTAVYYCARDTAAYFDYWGQGTLVTVSS VL: DIQMTQSPSSLSASVGDRVTITCEASRVIKSFLSWYQQKPGKAPKLLIYRGTSLFEGVPSRFSGSGSGTDFTLTISSLQPEDFATYYCLQHGESPFTFGQGTKVEIK | 10 nM
7 | D3 library clone, CDR-L2 YESGPAD (Fab, V domains shown, Changes against the D3 direct graft (Kabat): VL A51E, T52S, S53G, L54P; Siblings 2; copies: 1 + 1) VH: EVQLVESGGGLVQPGGSLRLSCAASGFNIKDYYMHWVRQAPGKGLEWVGWIDPENGNTIYDPKFQDRFTISADTSKNTAYLQMNSLRAEDTAVYYCARDTAAYFDYWGQGTLVTVSS VL: DIQMTQSPSSLSASVGDRVTITCKASRDIKSYLSWYQQKPGKAPKLLIYYESGPADGVPSRFSGSGSGTDFTLTISSLQPEDFATYYCLQHGESPFTFGQGTKVEIK | 8 nM
8 | D3 library clone, CDR-L2 YETGPTD (Fab, V domains shown, Changes against the D3 direct graft (Kabat): VL A51E, S53G, L54P, A55T; copies: 1 + 1) VH: EVQLVESGGGLVQPGGSLRLSCAASGFNIKDYYMHWVRQAPGKGLEWVGWIDPENGNTIYDPKFQDRFTISADTSKNTAYLQMNSLRAEDTAVYYCARDTAAYFDYWGQGTLVTVSS VL: DIQMTQSPSSLSASVGDRVTITCKASRDIKSYLSWYQQKPGKAPKLLIYYETGPTDGVPSRFSGSGSGTDFTLTISSLQPEDFATYYCLQHGESPFTFGQGTKVEIK | 9 nM
9 | D3 library clone, CDR-L2 YETGEPE (Fab, V domains shown, Changes against the D3 direct graft (Kabat): VL A51E, S53G, L54E, A55P, D56E; copies: 1 + 1) VH: EVQLVESGGGLVQPGGSLRLSCAASGFNIKDYYMHWVRQAPGKGLEWVGWIDPENGNTIYDPKFQDRFTISADTSKNTAYLQMNSLRAEDTAVYYCARDTAAYFDYWGQGTLVTVSS VL: DIQMTQSPSSLSASVGDRVTITCKASRDIKSYLSWYQQKPGKAPKLLIYYETGEPEGVPSRFSGSGSGTDFTLTISSLQPEDFATYYCLQHGESPFTFGQGTKVEIK | 11 nM
10 | D3 library clone, CDR-L2 YAPSLAD (Fab, V domains shown, Change against the D3 direct graft (Kabat): VL T52P; copies: 1 + 1) VH: EVQLVESGGGLVQPGGSLRLSCAASGFNIKDYYMHWVRQAPGKGLEWVGWIDPENGNTIYDPKFQDRFTISADTSKNTAYLQMNSLRAEDTAVYYCARDTAAYFDYWGQGTLVTVSS VL: DIQMTQSPSSLSASVGDRVTITCKASRDIKSYLSWYQQKPGKAPKLLIYYAPSLADGVPSRFSGSGSGTDFTLTISSLQPEDFATYYCLQHGESPFTFGQGTKVEIK | 4 nM
11 | D3 library clone, CDR-L2 YETGWAE (Fab, V domains shown, Changes against the D3 direct graft (Kabat): VL A51E, S53G, L54W, D56E; copies: 1 + 1) VH: EVQLVESGGGLVQPGGSLRLSCAASGFNIKDYYMHWVRQAPGKGLEWVGWIDPENGNTIYDPKFQDRFTISADTSKNTAYLQMNSLRAEDTAVYYCARDTAAYFDYWGQGTLVTVSS VL: DIQMTQSPSSLSASVGDRVTITCKASRDIKSYLSWYQQKPGKAPKLLIYYETGWAEGVPSRFSGSGSGTDFTLTISSLQPEDFATYYCLQHGESPFTFGQGTKVEIK | 10 nM
12 | D3 library clone, CDR-L2 YAPGPAD (Fab, V domains shown, Changes against the D3 direct graft (Kabat): VL T52P, S53G, L54P; copies: 1 + 1) VH: EVQLVESGGGLVQPGGSLRLSCAASGFNIKDYYMHWVRQAPGKGLEWVGWIDPENGNTIYDPKFQDRFTISADTSKNTAYLQMNSLRAEDTAVYYCARDTAAYFDYWGQGTLVTVSS VL: DIQMTQSPSSLSASVGDRVTITCKASRDIKSYLSWYQQKPGKAPKLLIYYAPGPADGVPSRFSGSGSGTDFTLTISSLQPEDFATYYCLQHGESPFTFGQGTKVEIK | 10 nM
13 | D3 library clone, CDR-L2 YAPGLAD (Fab, V domains shown, Changes against the D3 direct graft (Kabat): VL T52P, S53G; Siblings 2; copies: 1 + 1) VH: EVQLVESGGGLVQPGGSLRLSCAASGFNIKDYYMHWVRQAPGKGLEWVGWIDPENGNTIYDPKFQDRFTISADTSKNTAYLQMNSLRAEDTAVYYCARDTAAYFDYWGQGTLVTVSS VL: DIQMTQSPSSLSASVGDRVTITCKASRDIKSYLSWYQQKPGKAPKLLIYYAPGLADGVPSRFSGSGSGTDFTLTISSLQPEDFATYYCLQHGESPFTFGQGTKVEIK | 8 nM
14 | D3 library clone, CDR-L2 YTAGPSD (Fab, V domains shown, Changes against the D3 direct graft (Kabat): VL A51T, T52A, S53G, L54P, A55S; copies: 1 + 1) VH: EVQLVESGGGLVQPGGSLRLSCAASGFNIKDYYMHWVRQAPGKGLEWVGWIDPENGNTIYDPKFQDRFTISADTSKNTAYLQMNSLRAEDTAVYYCARDTAAYFDYWGQGTLVTVSS VL: DIQMTQSPSSLSASVGDRVTITCKASRDIKSYLSWYQQKPGKAPKLLIYYTAGPSDGVPSRFSGSGSGTDFTLTISSLQPEDFATYYCLQHGESPFTFGQGTKVEIK | 16 nM
15 | D3 library clone, CDR-L1 KGSRDTTSFVS (Fab, V domains shown, Changes against the D3 direct graft (Kabat): VL A25G, I29T, K30T, Y32F, L33V; copies: 1 + 1) VH: EVQLVESGGGLVQPGGSLRLSCAASGFNIKDYYMHWVRQAPGKGLEWVGWIDPENGNTIYDPKFQDRFTISADTSKNTAYLQMNSLRAEDTAVYYCARDTAAYFDYWGQGTLVTVSS VL: DIQMTQSPSSLSASVGDRVTITCKGSRDTTSFVSWYQQKPGKAPKLLIYYATSLADGVPSRFSGSGSGTDFTLTISSLQPEDFATYYCLQHGESPFTFGQGTKVEIK | 19 nM
16 | D3 library clone, CDR-L2 YEGSGKR (Fab, V domains shown, Changes against the D3 direct graft (Kabat): VL A51E, T52G, L54G, A55K, D56R; Siblings 8; copies: 1 + 1) VH: EVQLVESGGGLVQPGGSLRLSCAASGFNIKDYYMHWVRQAPGKGLEWVGWIDPENGNTIYDPKFQDRFTISADTSKNTAYLQMNSLRAEDTAVYYCARDTAAYFDYWGQGTLVTVSS VL: DIQMTQSPSSLSASVGDRVTITCKASRDIKSYLSWYQQKPGKAPKLLIYYEGSGKRGVPSRFSGSGSGTDFTLTISSLQPEDFATYYCLQHGESPFTFGQGTKVEIK | 12 nM
17 | D3 library clone, CDR-L2 YVPWTAD (Fab, V domains shown, Changes against the D3 direct graft (Kabat): VL A51V, T52P, S53W, L54T; copies: 1 + 1) VH: EVQLVESGGGLVQPGGSLRLSCAASGFNIKDYYMHWVRQAPGKGLEWVGWIDPENGNTIYDPKFQDRFTISADTSKNTAYLQMNSLRAEDTAVYYCARDTAAYFDYWGQGTLVTVSS VL: DIQMTQSPSSLSASVGDRVTITCKASRDIKSYLSWYQQKPGKAPKLLIYYVPWTADGVPSRFSGSGSGTDFTLTISSLQPEDFATYYCLQHGESPFTFGQGTKVEIK | 10 nM
18 | D3 library clone, CDR-L2 YEPGLAD (Fab, V domains shown, Changes against the D3 direct graft (Kabat): VL A51E, T52P, S53G; copies: 1 + 1) VH: EVQLVESGGGLVQPGGSLRLSCAASGFNIKDYYMHWVRQAPGKGLEWVGWIDPENGNTIYDPKFQDRFTISADTSKNTAYLQMNSLRAEDTAVYYCARDTAAYFDYWGQGTLVTVSS VL: DIQMTQSPSSLSASVGDRVTITCKASRDIKSYLSWYQQKPGKAPKLLIYYEPGLADGVPSRFSGSGSGTDFTLTISSLQPEDFATYYCLQHGESPFTFGQGTKVEIK | 7 nM
19 | D3 library clone, CDR-L2 YTTGPVD (Fab, V domains shown, Changes against the D3 direct graft (Kabat): VL A51T, S53G, L54P, A55V; copies: 1 + 1) VH: EVQLVESGGGLVQPGGSLRLSCAASGFNIKDYYMHWVRQAPGKGLEWVGWIDPENGNTIYDPKFQDRFTISADTSKNTAYLQMNSLRAEDTAVYYCARDTAAYFDYWGQGTLVTVSS VL: DIQMTQSPSSLSASVGDRVTITCKASRDIKSYLSWYQQKPGKAPKLLIYYTTGPVDGVPSRFSGSGSGTDFTLTISSLQPEDFATYYCLQHGESPFTFGQGTKVEIK | 21 nM
20 | D3 library clone, CDR-L3 LQDGESPFT (Fab, V domains shown, Change against the D3 direct graft (Kabat): VL H91D; Siblings 5; copies: 1 + 1) VH: EVQLVESGGGLVQPGGSLRLSCAASGFNIKDYYMHWVRQAPGKGLEWVGWIDPENGNTIYDPKFQDRFTISADTSKNTAYLQMNSLRAEDTAVYYCARDTAAYFDYWGQGTLVTVSS VL: DIQMTQSPSSLSASVGDRVTITCKASRDIKSYLSWYQQKPGKAPKLLIYYATSLADGVPSRFSGSGSGTDFTLTISSLQPEDFATYYCLQDGESPFTFGQGTKVEIK | 13 nM
21 | D3 library clone, CDR-L2 YATGETD (Fab, V domains shown, Changes against the D3 direct graft (Kabat): VL S53G, L54E, A55T; Siblings 2; copies: 1 + 1) VH: EVQLVESGGGLVQPGGSLRLSCAASGFNIKDYYMHWVRQAPGKGLEWVGWIDPENGNTIYDPKFQDRFTISADTSKNTAYLQMNSLRAEDTAVYYCARDTAAYFDYWGQGTLVTVSS VL: DIQMTQSPSSLSASVGDRVTITCKASRDIKSYLSWYQQKPGKAPKLLIYYATGETDGVPSRFSGSGSGTDFTLTISSLQPEDFATYYCLQHGESPFTFGQGTKVEIK | 16 nM
